The target in the experiment is T1, CD22 (Homo sapiens, UniProt P20273).
T1 construct: host or cells: Raji cells
In words: Binding of AGC1115 and AGC1100 to CD22-positive Raji cells by flow cytometry. The settings on record: flow cytometry MFI, 1.5 h at 4° C., four-parameter fit, read-out: EC50 of fitted titration curve (binding potency). As for the experimental part:
Binding of AGC1115 and AGC1100 (anti-human CD22, Immunomedics; hLL2, #1003164, 10 mg/ml) to CD22-positive Raji cells (ATCC, #CCL-86) was analysed by flow cytometry. The EC50 value determined from the fitted curve was used for comparison of the antibody versus the antibody conjugate binding potency. This analysis was used to confirm that antibody conjugate binding potency to CD22 was unaffected by the conjugation procedure.
Raji cells were grown in RPMI 1640 (PAA; #E15-840) in the presence of 10% fetal bovine serum (FBS) and 1% penicillin/streptomycin. For the flow cytometry analysis 50 ml cell culture was harvested by centrifugation at 4° C. for 5 min at 340×g. […] Subsequently, 20 μl of the preparation of resuspended cells was diluted 1:500 in Coulter Isoton II Diluent, and counted using Beckman Coulter Z2 instrumentation (Beckman Coulter; CA, USA). […]
AGC1115 and AGC1100 was diluted to 50 μg/ml and titrated in twelve points in 3-fold dilution steps. […] All samples were analysed in a V-shaped bottom 96-well plate. Fluorescent signal was recorded on a Beckman Coulter Cell Lab Quanta SC MPL flow cytometer (Beckman Coulter; CA, USA). […]
Data was fitted using the “log(agonist) vs. response—Variable slope (four parameters)” binding model in Graph Pad Prism (PrismSoftware; CA, USA) and the EC50 values was calculated from the fit (FIG. 2).
(In general: A flow cytometer gives signals particle by particle.)

This passage reports EC50 results from patent US20150104385A1, “RADIO-PHARMACEUTICAL COMPLEXES” (Algeta ASA, priority 2012, published 2015).

Take “AGC1100: anti-CD22 monoclonal antibody hLL2, also called epratuzumab”: the EC50 was 9 nM.
